{
  "source": "patent US20160177324A1",
  "about": "“NOVEL PROTEIN AND GENE RELATED TO FLAVONOID O-METHYLTRANSFERASE (FOMT) AND THEIR USES THEREFORE” (INSTITUTE OF BOTANY, THE CHINESE ACADEMY OF SCIENCES, priority 2013, published 2016)",
  "key": {"[1]": {"test": "Comparison of activities among recombinant polypeptides with site mutagenesis", "format": "biochemical", "details": "Cy3G5G as substrate", "procedure": "(§1) The reaction system was according to Hugueney et al. with some modification (Hugueney, P., et al., A novel cation-dependent O-methyltransferase involved in anthocyanin methylation in grapevine. Plant Physiology, 2009. 150(4): p. 2057-2070.). Purified recombinant FOMT (2 μg) was assayed in a final volume of 200 μL containing 200 μM SAM, 1 mM MgCl2, 14 mM β-mercaptoethanol, 100 mM Tris, pH 7.5, and 20 μM flavonoid substrates. Incubation was performed at 35° C. and stopped with 200 μL methanol containing 2% formic acid. For enzyme kinetic studies, purified FOMT was incubated based on the above condition with the exception that a range of substrate concentrations from 5 to 200 μM were used for Km determination. Reaction product was analyzed by a Dionex HPLC system (Sunnyvale, Calif.), equipped with a P680 HPLC pump, an UltiMate 3000 autosampler, a TCC-100 thermostated column compartment and a Dionex PDA100 photodiode array detector. The analytical column was C18 column of ODS 80Ts QA (150 mm×4.6 mm, 5 μm i.d., Tosoh, Tokyo) protected with a C18 guard cartridge (Shanghai ANPEL Scientific Instrument, Shanghai). The following solvent and gradient were used: A, 10% aqueous formic acid; B, methanol; constant gradient from 10 to 36% B within 15 min and back to 10% B in 3 min; the flow rate was 0.8 mL min^−1; Column temperature was maintained at 35° C.; 20 μL of analyte was injected. Chromatograms were obtained at 525 nm for anthocyanins and 350 nm for other flavonoids, and photodiode array spectra were recorded from 200 to 800 nm. Km and Vmax values were calculated from Lineweaver-Burk plots.\nTo validate the key amino acid responsible for the activity, site-directed mutagenesis was carried out using the PCR method and Fast Mutagenesis System (TransGen), and primer sequences used are given in Table 1. Four constructs were built following the template sequence of PtFOMT, named as PtFOMT-G13E, PtFOMT-T85A, PtFOMT-R87L, and PtFOMT-T205R. The corresponding recombinant proteins were purified and the catalytic activities were examined. […] The other mutants have no significant improved activity compared with PtFOMT. The leucine at 87-position is a vital residue for the methyltransferase activity."}, "[2]": {"test": "Biochemical characterization of PsFOMT reaction conditions (pH, temperature, divalent cations, Mg2+ concentration)", "procedure": "For quantitative analyses, reaction conditions were optimized. The pH dependence of FOMTs activity was assessed in the pH range of 4.5 to 8.5 using MES (4.5-6.5) and Tris-HCl (7.5-8.5) buffer. The effect of divalent cations on enzyme activity was estimated by adding to the reaction mixture containing 10 mM MgCl2, CaCl2, ZnCl2, MnCl2, CoCl2 or EDTA. The proper concentration of metal ion was assessed by testing different concentrations of MgCl2 (0.1, 0.2, 0.5, 1.0, 5.0 and 10 mM). Incubation temperature was set at 25, 30, 35 and 40° C. to detect the effect on enzyme activity.\nas §1"}, "[3]": {"system": "Fragaria×ananassa cv. 'Hongyan' fruits", "test": "Transient expression in strawberry fruit (coexpression with PAP1)", "format": "in vivo", "procedure": "A strawberry cultivar, Fragaria×ananassa cv. ‘Hongyan’ (The Beijing Agricultural Technology Extension Station) with fruits turning red were chosen as subjects. A single colony of Agrobacterium strain EHA105 with pBI121-FOMT construct was inoculated, and the pellet were centrifuged and washed with infiltration buffer (50 mM Mes, pH 5.6, 2 mM Na3PO4, 0.5% glucose (w/v), and 100 mM acetosyringone) according to Hoffmann et al. (Hoffmann, T., G. Kalinowski, and W. Schwab, RNAi-induced silencing of gene expression in strawberry fruit (Fragaria×ananassa) by agroinfiltration: a rapid assay for gene function analysis. Plant Journal, 2006. 48(5): p. 818-826.). The bacterial suspension was diluted with infiltration buffer to adjust the inoculum concentration to OD600 0.1-0.3. A syringe infiltration method was used to transient transform strawberry fruits. The infiltrated fruits were harvested after four days for anthocyanin content analyses as follow. […] The MS conditions were listed as follow: negative-ion (NI) mode; capillary voltage of 3.5 kV; a nebulization pressure of 241.3 kPa; and a gas (N2) temperature of 350° C. with flow rate of 6.0 L min^−1 Capillary offset voltage was 77.2 V. MS spectra were recorded over the range from m/z 50-1000."}},
  "data": [
    {"molecule": "PsFOMT: flavonoid O-methyltransferase from tree peony Paeonia suffruticosa cv. 'Gunpohden', SEQ ID NO: 3; recombinant MBP fusion protein (protein, listed as Paeonia suffruticosa, MBP fusion, recombinant MBP fusion protein) MAESDRKGILKSEALLKYILETSVYPREHEQLKQLRQATVDKYKYWSVMNVPADEGQFLSMLLKIMNAKKTIEVGVFTGYSLLTAALALPTDAKITAIDPDGEAYETGLPFIKKAGVEHKINYIQADAMSVLDDLVTNGKEEGSFDFAFVDADKENYAKYHEPLMKLVKIGGIIGYDNTLWFGSVALSDGDEMKEFQEKGRRIFREFNTFLAADPRIELAHISIGDGLALCRRLY", "values": [
      {"measurement": "Activity (%), portion of recombinant protein activity compared with PsFOMT", "setting": "[1]; Incubation 5 min", "result": 100, "unit": "%"},
      {"measurement": "Activity (%), portion of recombinant protein activity compared with PsFOMT", "setting": "[1]; Incubation 30 min", "result": 100, "unit": "%"},
      {"measurement": "activity in the presence of EDTA", "setting": "[2]; 10 mM EDTA", "result": "could not been detected"},
      {"measurement": "influence of different divalent cations on activity", "setting": "[2]; 10 mM MgCl2, CaCl2, ZnCl2, MnCl2, CoCl2", "result": "most active in the presence of Mg^2+"},
      {"measurement": "effect of increasing incubation temperature on activity", "setting": "[2]; 25-40° C.", "result": "accelerated"},
      {"measurement": "optimal concentration of Mg^2+", "setting": "[2]; MgCl2 0.1-10 mM tested", "result": 1.0, "unit": "mM"},
      {"measurement": "pH optimum", "setting": "[2]; on the substrate of Qu3R", "result": 7.5},
      {"measurement": "pH dependence range of activity in vitro", "setting": "[2]; substrate Qu3R, pH 4.5 to 8.5 tested", "result": "6.5-8.5"},
      {"measurement": "proportion of methylated products (Pn type) to precursors (Cy type)", "setting": "[3]", "result": "more than that of PtFOMT"}
    ]}
  ]
}
